Laboratory results published in patent US8017326B2, “Methods of modulating cell death based on the Bit-1/AES regulatory pathway” (Sanford-Burnham Medical Research Institute, priority 2002, dated 2011).

What was measured:
HEK 293 cells = assay: Annexin V-FITC/propidium iodide staining of Bit1-transfected cells; type: cell-based, human
Description: (§1) Bit1 activity was analyzed in the human embryonic kidney cell line, HEK 293. […] Furthermore, HEK 293 cells were transfected with a Bcl-2-promoter-luciferase reporter construct together with increasing amounts of Bit1 expression construct; Bcl-2 transcription was measured by quantifying luciferase […] after 24 hours in culture. In agreement with the CHO cell results, transcription from the Bcl-2 promoter was suppressed in the Bit1-transfected HEK 293 cells (see FIG. 1B). […] In particular, the percentages of annexin V-positive cells (lower right quadrants) are about 1.4% in the control and about 4.7% in the Bit1-transfected cells.
Analysis of cell viability and apoptosis was performed as follows. Cell viability was measured by trypan blue exclusion analysis. Apoptosis was confirmed by DNA fragmentation (Oncogene; La Jolla, Calif.) thirty-six hours after transfection. Annexin-V staining (BD Biosciences Clontech; Palo Alto, Calif.) was performed according to the manufacturer's protocol.

Bcl-2 promoter [1] = assay: Bcl-2 promoter reporter assay in CHO cells; type: cell-based, Chinese hamster
From the text: The entire CGI-147 open reading frame encodes a 27-kDa protein with no sequence similarity to other proteins. […] To denote this inhibitory transcriptional activity, the Clone-3 gene was denoted Bit1 for Bcl-2 inhibitor of transcription.

Bcl-2 promoter [2] = assay: Bcl-2-promoter-luciferase reporter assay in HEK 293 cells; type: cell-based, human; settings: luciferase after 24 hours
Description: as §1

HOP92 cells = assay: Percentage of GFP-positive detached cells after transfection; type: cell-based; settings: 72 hours after transfection; cells express only negligible amounts of AES
Description: To determine if Bit1 and AES are both required for apoptosis induction, HEK 293T, HOP92, and CHO cells were transfected with a GFP (vector), GFP-Bit1, or GFP-AES fusion protein constructs, as indicated in FIG. 3E. The cells were examined 48 hours (HEK 293T and CHO) or 72 hours (HOP92) after transfection, and the percentage of GFP-positive detached cells was measured.
Because the HEK 293T cells lack detectable Bit1 activity, it seemed possible that AES required endogenous Bit1 for the pro-apoptotic activity. An NIH data bank identified HOP92 as a cell line that expresses only negligible amounts of AES. […] CHO cells (FIG. 3E) and HeLa cells, which express both Bit1 and AES, underwent apoptosis upon transfection with either protein.

HEK 293T cells = assay: Anoikis of attached or detached (poly-HEMA) transfected cells; type: cell-based, human
Description: The role of Bit1 in the tendency of detached cells to undergo apoptosis (anoikis in the strictest sense) was then examined. HEK 293T cells were transfected with C-terminally myc-tagged (mitochondrial) Bit1 or with empty vector, and the cells were cultured either on tissue-culture plates (attached) or on poly-HEMA (detached) for 48 hours. The number of attached cells (10^6) was the same whether the cells were transfected with Bit1 or vector (assigned as 100% in FIG. 8H).
As is shown in FIG. 8H, Bit1 and control transfected cells had the same level of spontaneous apoptosis when grown attached to a culture dish. In striking contrast, detachment induced a higher level of cell death in the Bit1-transfected cells than in the control cells. Given that the transfection efficiency was about 50-70% in the 293T cells, the nearly 4-fold higher apoptosis level of the Bit1-transfected cells translates into more than 5-fold difference in anoikis sensitivity.

AES [3] = target: T1, AES (Homo sapiens, UniProt Q08117); assay: Yeast two-hybrid analysis; type: binding; settings: yeast co-transformed with vectors encoding both Bit1 and AES
T1 construct: expressed in transfected cells; host or cells: yeast strain AH109
T1 sequence (Q08117 1-197): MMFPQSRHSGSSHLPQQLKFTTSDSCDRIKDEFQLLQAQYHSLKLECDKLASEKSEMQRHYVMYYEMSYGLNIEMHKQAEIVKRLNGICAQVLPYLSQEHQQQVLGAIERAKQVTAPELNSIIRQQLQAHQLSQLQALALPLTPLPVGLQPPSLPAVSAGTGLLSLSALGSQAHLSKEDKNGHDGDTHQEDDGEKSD
Description: To explore the mechanism whereby Bit1 induces cell death, a yeast-two-hybrid screening assay was performed to search for binding partners for the Bit1 protein. Full-length Bit1 cDNA was fused to the Gal4 DNA-binding domain in the pGBKT7 vector and used as bait; a human fetal brain cDNA expression library fused to the Gal4 transcriptional activation domain was screened in cells expressing the Bit1/GAL4 DNA-binding domain fusion. Approximately one million transformants from the cDNA library were screened, and about 100 clones positive for both nutritional selection and α-galactosidase activity were obtained.
The ability of AES to interact with Bit1 was confirmed in mammalian cells.
Yeast two-hybrid screening was performed as follows. Full length CGI-147 was cloned in-frame with the Gal4 DNA binding domain in vector pGBKT7 and used to screen a yeast two-hybrid library derived from human fetal brain (Clontech). Yeast strain AH109 was co-transformed with PGBKT7-Bit1, pACT-2-AES or both, and growth selected in SD medium -ADE/-His/-Leu/-Trp and assayed for α-galactosidase activity according to the manufacturer's instructions (Clontech).

AES [4] = target: T1, AES; assay: Co-immunoprecipitation of exogenously expressed tagged Bit1 and AES; type: binding; settings: immunoprecipitated with anti-flag, immunoblotted with anti-myc
Description: Tagged Bit1 and AES were transfected into cells, and cell extracts were immunoprecipitated with anti-flag and immunoblotted with anti-myc. Equal loading of the samples was confirmed by immunoblotting of the whole extract with anti-flag.
Immunoprecipitation and immunoblotting were performed essentially as follows. Cells were transfected with full-length clones for Bit1 and AES, which were obtained by PCR from EST clones using Pfu enzyme (Stratagene; La Jolla, Calif.) and cloned into pCMV-Myc (Clontech) or pCMV-flag (Sigma; St. Louis, Mo.). After 24 to 48 hours, cells were harvested in ice-cold NP-40 lysis buffer (1% NP-40; 20 mM Tris-HCl, pH 7.4; 150 mM NaCl; 10% glycerol, 2 mM sodium vanadate; 1 mM phenylmethyl sulfonylfluoride; 10 μg/ml leupeptin; and 5 μg/ml aprotinin) and lysed at 4° C. for 15 minutes. Lysates were incubated for two hours with the indicated antibodies, and the antibody complexes precipitated with 20 μl of Gammabind (Amersham-Pharmacia; Piscataway, N.J.) for an additional hour. After washing the beads, bound proteins were solubilized in SDS-PAGE sample buffer. Western blot analysis was performed according to standard procedures.

B1: Bit1: human Bit1 polypeptide of 179 residues (SEQ ID NO:2), pro-apoptotic, expressed in cells by transfection (protein, listed as Homo sapiens)
chain: MPSKSLVMEYLAHPSTLGLAVGVACGMCLGWSLRVCFGMLPKSKTSKTHTDTESEASILGDSGEYKMILVVRNDLKMGKGKVAAQCSHAAVSAYKQIQRRNPEMLKQWEYCGQPKVVVKAPDEETLIALLAHAKMLGLTVSLIQDAGRTQIAPGSQTVLGIGPGPADLIDKVTGHLKLY
Late stage apoptosis, both annexin V and propidium iodide uptake (upper right quadrants) (HEK 293 cells; Bit1-transfected HEK 293 cells versus control): 18% | percentages of annexin V-positive cells (lower right quadrants) (HEK 293 cells; Bit1-transfected HEK 293 cells, control about 1.4%): about 4.7% | Bcl-2 promoter activity (Bcl-2 promoter [1]; CHO cells, 1 μg Bcl-2-luciferase reporter construct, 24 hours in culture): down-regulate | expression of the Bcl-2 promoter construct (Bcl-2 promoter [1]; transfected into CHO cells): down-regulated | transcription from the Bcl-2 promoter (Bcl-2 promoter [2]): suppressed | apoptosis induction in HOP92 cells (HOP92 cells): resistant | reduction of the number of surviving cells in detached cultures (HEK 293T cells; C-terminally myc-tagged Bit1, poly-HEMA, 48 hours, 8% in the vector transfection): 30% | apoptosis level of Bit1-transfected cells versus control cells, detached (HEK 293T cells; HEK 293T cells, detached): ~4 fold | difference in anoikis sensitivity (HEK 293T cells; corrected for transfection efficiency of about 50-70%): more than 5 fold | interaction with AES, growth of co-transformed yeast (AES [3]): yeast grew | co-immunoprecipitation with AES (AES [4]): confirmed interaction
